The values below are quoted from earlier work in article PMC9858354.

In the series the target is CCRL2 (Homo sapiens) (UniProt O00421). In words: radioligand.
CCRL2 (Homo sapiens), sequence (O00421 whole entry): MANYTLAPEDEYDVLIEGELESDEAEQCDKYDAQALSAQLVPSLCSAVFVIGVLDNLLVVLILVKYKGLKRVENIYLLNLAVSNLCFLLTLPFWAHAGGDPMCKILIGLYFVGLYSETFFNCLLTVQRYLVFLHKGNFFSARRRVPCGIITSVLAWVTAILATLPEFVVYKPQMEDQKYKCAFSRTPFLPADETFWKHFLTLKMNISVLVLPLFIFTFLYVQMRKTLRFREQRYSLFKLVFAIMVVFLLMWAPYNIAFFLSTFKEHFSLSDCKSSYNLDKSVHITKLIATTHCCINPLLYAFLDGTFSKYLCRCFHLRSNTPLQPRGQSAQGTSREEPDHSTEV

chemerin, sequence (Q99969 21-157): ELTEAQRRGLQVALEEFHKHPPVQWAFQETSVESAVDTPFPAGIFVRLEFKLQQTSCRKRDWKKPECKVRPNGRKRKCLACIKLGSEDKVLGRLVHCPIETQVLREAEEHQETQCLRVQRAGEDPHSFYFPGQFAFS

As usually defined, the Kd is the constant that tells how readily two partners part at equilibrium. Turning to chemerin (from UniProt Q99969), the Kd is 2.35 nM.
